# B1: 3E8 (antibody, IgG1, V domains shown)
# VH: QVQLQQSGAELARPGASVRLSCKASGYTFTSYAIRWVKQRTGQGLEWIGEIYPRSGNTYYNENFKGKATLTADKSSSTAYMELRSLTSEDSAVYFCARSGGASYTMDYWGQGTSVTVSS
# VL: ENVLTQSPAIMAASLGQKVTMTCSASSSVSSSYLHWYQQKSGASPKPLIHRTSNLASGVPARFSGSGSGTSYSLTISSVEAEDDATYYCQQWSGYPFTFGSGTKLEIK
# B2: 26B1 (antibody, IgG1, V domains shown)
# VH: EVQLQQSGPVLVKPGASVKMSCKASGYTFTDYYLNWVKQSHGKSLEWIGLIDPYNGGSSCNQKFKGKATLTVDKSSSTAYMDLNSLTSEDSAVYYCARGNAMDYWGQGTSVTVSS
# VL: DIVMTQSHKFMSTSVGDRVSITCKASQDVSTAVAWYQEKPGQSPKLLIYWASTRHTGVPDRFTGSGSGTDYILNISSVQAEDLALYYCQQHYIIPYMFGGGTKLEIK
# B3: 12F11 (antibody, IgG1, V domains shown)
# VH: EVQLQQSGPELVKPGASVKISCKASGYTFTDYYMNWVKQSHGKSLEWIGDINPNNGGTSYNQKFKGKATLTVDKSSSTAYMELRSLTSEDSAVYYCARWRQLRSDYWGQGTTLTVSS
# VL: DIQMTQSPASQSASLGESVTITCLASQTIGTWLAWYQQKPGKSPQLLIYAATSLADGVPSRFSGSGSGTKFSFKISSLQAEDFVSYYCQQLYSTPLTFGAGTKLELK
# B4: 8C4 (antibody, IgG1, V domains shown)
# VH: DVQLQESGPGMVKPSQSLSLTCTVTGYSITSGYDWHWIRHFPGNKLEWMGYISYSGSTNYNPSLKSRISITHDTSKNHFFLKLNSVTTEDTATYYCARGTPVVAEDYFDYWGQGTTLTVSS
# VL: QAVVTQESALSTSPGETVTLTCRSSTGAVTTSNYANWVQEKPDHLFTGLIGATNNRAPGVPARFSGSLIGDKAALTITGAQTEDEAIYFCALWYSNHLVFGGGTKLTVLG
# B5: 3A9 (antibody, IgG1, V domains shown)
# VH: QVQLKQSGAELVRPGASVKLSCKASGYTFTDYYINWVKQRPGQGLEWIARIYPGSGNTYYNEKFKGKATLTAEKSSSTAYMQLSSLTSEDSAVYFCARGYGNSDYWGQGTTLTVSS
# VL: DILLTQSPAILSVSPGERVSFSCRASQSIGTRIHWYQQRTNGSPRLLIKYASESISGIPSRFSGSGSGTDFTLSINSVESEDIADYYCQQSNSWPYTFGGGTKLEIK
# B6: 10B1 (antibody, IgG1, V domains shown)
# VH: QVQLQQSGAELARPGASVKLSCKASGYTFTSYGISWVKQRTGQGLEWIGEIYPRSGNTYYNEKFKGKATLTADKSSSTAYMELRSLTSEDSAVYFCARNYGSSYPFAYWGQGTLVTVSA
# VL: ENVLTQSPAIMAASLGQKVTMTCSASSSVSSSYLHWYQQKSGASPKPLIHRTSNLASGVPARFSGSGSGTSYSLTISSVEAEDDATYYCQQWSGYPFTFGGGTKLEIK
# B7: 4H4 (antibody, IgG1, V domains shown)
# VH: QVQLQQSGAELARPGASVKLSCKASGYTFTSYGISWVKQRTGQGLEWIGEIYPRSGNTYYNEKFKGKATLTADKSSSTAYMELRSLTSEDSAVYFCARRRGAGDGFDYWGQGTTLTVSS
# VL: DIQMTQTTSSLSASLGDRVTISCSASQGISNYLNWYQQKPDGTVKLLIYYTSSLHSGVPSRFSGSGSGTDYSLTISNLEPEDIATYYCQQYSKLPFTFGSGTKLEIK
# B8: 16E1 (antibody, IgG1, V domains shown)
# VH: QVQLQQSGAELARPGASVKLSCKASGYTFTSYGISWVKQRTGQGLEWIGEIYPRSGNTYYNEKFKGKATLTADKSSSTAYMELRSLTSEDSAVYFCARGYGSSYGFAYWGQGTLVTVSA
# VL: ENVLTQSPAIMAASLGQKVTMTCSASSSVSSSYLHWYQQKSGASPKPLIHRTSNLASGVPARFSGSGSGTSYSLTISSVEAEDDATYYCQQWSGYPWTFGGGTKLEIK
# B9: 7A1 (antibody, IgG1, V domains shown)
# VH: QVQLQQSGPELVKPGASVKISCKASGYAFSSSWMNWVKQRPGKGLEWIGRIYPGDGDTNYNGKFKGKATLTADKSSSTAYMQLSSLTSEDSAVYFCARRGYGYLAYWGQGTLVTVSA
# VL: DIVMTQSHKFMSTSVGDRVSITCKASQDVSTAVAWYQQKPGQSPKLLIYSASYRYTGVPDRFTGSGSGTDFTFTISSVQAEDLAVYYCQQHYSTPWTFGGGTKLEIK
# B10: 15C6 (antibody, IgG1, V domains shown)
# VH: QVQLQQSGPELVKPGASVKISCKASGYAFSSSWMNWVKQRPGKGLEWIGRIYPGDGDTNYNGKFKGKATLTADKSSSTAYMQLSSLTSEDSAVYFCARRGYGYLAYWGQGTLVTVSA
# VL: DIVMTQSHKFMSTSVGDRVSITCKASQDVSTAVAWYQQKPGQSPKLLIYSASYRYTGVPDRFTGSGSGTDFTFTISSVQAEDLAVYYCQQHYSTPYTFGGGTKLEIK
# B11: 27G9 (antibody, IgG1, V domains shown)
# VH: EVQLQQSVAELVRPGASVKLSCTASGFNIKNTYMHWVKQRPEQGLEWIGRIDPANGNTKYAPKFQGKATITADTSSNTAYLQLSSLTSEDTAIYYCALTYYGSSQYYFDYWGQGTTLTVSS
# VL: not shown
# B12: 1H6 (antibody, IgG1, V domains shown)
# VH: EVQLQQSVAELVRPGASVKLSCTASGFNIKNTYMHWVKQRPEQGLEWIGRIDPANGNTKYDPKFQGKATITADTSSNTAYVQLSSLTSEDTAIYYCALTYYGSSQHYFDYWGQGTTLTVSS
# VL: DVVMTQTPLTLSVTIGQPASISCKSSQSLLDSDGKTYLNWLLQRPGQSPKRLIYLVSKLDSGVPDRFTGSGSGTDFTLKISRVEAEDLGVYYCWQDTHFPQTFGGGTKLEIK
# B13: 26F3 (antibody, IgG1, V domains shown)
# VH: EVQLQQSVAELVRPGASVKLSCTASGFNIKNTYMYWVKQRPEQGLEWIGRIDPANGNTKYAPKFQGKATITADTSSNTAYLQLSSLTSEDTAIYYCALLYYGSSYDYFDYWGQGTTLTVSS
# VL: not shown
# B14: 15B6 (antibody, IgG1, V domains shown)
# VH: QVQLQQPGAELVKPGASVKLSCKASGYTFTSYWMHWVKQRPGQGLEWIGMIHPNSGSTNYNEKFKSKATLTVDKSSSTAYMQLSSLTSEDSAVYYCARKRGGLGDYWGQGTSVTVSS
# VL: DIVLTQSPASLAVSLGQRATISCRASKSVSTSGYSYMHWYQQKPGQPPKLLIYLASNLESGVPARFSGSGSGTDFTLNIHPVEEEDAATYYCQHSRELPYTFGGGTKLEIK
# What was measured:
# [1] = molecular target: chimeric BTLA of humanised-BTLA mice (human extracellular region, murine transmembrane and signaling … (human; mouse, UniProt Q7TSA3 184-306, limits assumed); experiment: cell-based or functional assay
# [2] = molecular target: full length human BTLA expressed in a Jurkat T cell line (human, UniProt Q7Z6A9 31-289); experiment: cell-based or functional assay
# chimeric BTLA of humanised-BTLA mice (human extracellular region, murine transmembrane and signaling …, sequence (Q7TSA3 other isoform, or with tags, fused parts or gaps mutant limits assumed): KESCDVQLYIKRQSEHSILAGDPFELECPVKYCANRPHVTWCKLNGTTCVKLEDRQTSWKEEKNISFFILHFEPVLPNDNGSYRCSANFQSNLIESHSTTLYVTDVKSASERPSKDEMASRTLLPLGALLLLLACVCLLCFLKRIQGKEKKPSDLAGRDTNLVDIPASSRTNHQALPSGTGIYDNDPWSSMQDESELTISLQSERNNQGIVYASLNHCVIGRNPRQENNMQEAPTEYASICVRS
Binder,"AntiCD3/CD28 (CD4 T cell proliferation) repeat 1, % inhibition [1] [%]","AntiCD3/CD28 (CD4 T cell proliferation) repeat 2, % inhibition [1] [%]","AntiCD3/CD28 (CD69+ CD4 T cells) repeat 1, % inhibition [1] [%]","AntiCD3/CD28 (CD69+ CD4 T cells) repeat 2, % inhibition [1] [%]","MLR (CD4 T cell proliferation) repeat 1, % inhibition [1] [%]","MLR (CD4 T cell proliferation) repeat 2, % inhibition [1] [%]","T cell reporter (NFkB signaling), % inhibition [2] [%]"
B1,27,35,52,64,43,35,30
B2,11,19,35,30,12,10,29
B3,5,9,30,40,28,23,30
B4,12,4,29,29,42,-2,21
B5,9,9,22,34,7,24,27
B6,8,14,24,36,16,25,27
B7,14,22,43,52,10,17,25
B8,4,8,9,23,33,8,22
B9,14,17,28,38,23,29,20
B10,2,-2,12,19,19,8,9
B11,10,13,24,22,9,8,24
B12,26,19,47,53,31,16,26
B13,4,0,19,17,9,-5,20
B14,9,16,13,20,7,13,21

# Source: patent US20220177589A1 (OXFORD UNIVERSITY INNOVATION, published 2022)
